Measured values from patent US20230374116A1 (ROSALIND FRANKLIN INSTITUTE, published 2023).

What follows are binders tested against Alpha RBD.

| Binder | Kd [pM] | T1/2 [min] |
| --- | --- | --- |
| C1 (VHH) VHH: QVQLVESGGGLVQPGGSLRLSCAASGFTNDFYSIAWFRQAPGKEREGVSWLSVSDNTPTYVDSVKDRFTISRHNANNTVYLQMNMLKPEDTAIYYCAAGRFAGRDTWPSSYDYWGQGTQVTVSS | 725 | 21 |
| F2 (VHH, also called VHH F2) VHH: QVQLVESGGGLVQAGGSLRLACIASGRTFHSYVMAWFRQAPGKEREFVAAISWSSTPTYYGESVKGRFTISRDNAKNTVYLQMNRLKPEDTAVYFCAADRGESYYYTRPTEYEFWGQGTQVTVSS | 47 | 51 |
| C5 (VHH, also called VHH C5) VHH: QVQLVESGGGSVQAGGSLTLSCVASGVTLGRHAIGWFRQAPGKERERVSCIRTFDGITSYVESTKGRFTISSNNAMNTVYLQMNSLKPEDTAVYFCALGVTAACSDNPYFWGQGTQVTVSS | 2520 | 1 |
| H3 (VHH) VHH: QVQLVESGGGLVKTGGSLRLSCAASGRTFSTYSMGWFRQAPGKEREFVAGMRWTGSSTFYSDSVKGRFTVSRNNAKDTVYLHMNSLKPEDTAVYYCAITTIVRAYYTEYTEADFGSWGQGTQVTVSS | 102 | 10 |

Molecular target: Alpha RBD
Remark: another data set of the same source

| Binder | Kd [pM] | T1/2 [min] | koff [s⁻¹] | kon [M⁻¹ s⁻¹] |
| --- | --- | --- | --- | --- |
| C1 trimer (VHH) QVQLVESGGGLVQPGGSLRLSCAASGFTNDFYSIAWFRQAPGKEREGVSWLSVSDNTPTYVDSVKDRFTISRHNANNTVYLQMNMLKPEDTAIYYCAAGRFAGRDTWPSSYDYWGQGTQVTVSSGSGSGSQVQLVESGGGLVQPGGSLRLSCAASGFTNDFYSIAWFRQAPGKEREGVSWLSVSDNTPTYVDSVKDRFTISRHNANNTVYLQMNMLKPEDTAIYYCAAGRFAGRDTWPSSYDYWGQGTQVTVSSGSGSGSQVQLVESGGGLVQPGGSLRLSCAASGFTNDFYSIAWFRQAPGKEREGVSWLSVSDNTPTYVDSVKDRFTISRHNANNTVYLQMNMLKPEDTAIYYCAAGRFAGRDTWPSSYDYWGQGTQVTVSS | 73 | 154 | 7.4e-05 | 1e+06 |
| C5 trimer (VHH, also called trimeric C5 nanobody; C5-6GS-C5-6GS-C5) QVQLVESGGGSVQAGGSLTLSCVASGVTLGRHAIGWFRQAPGKERERVSCIRTFDGITSYVESTKGRFTISSNNAMNTVYLQMNSLKPEDTAVYFCALGVTAACSDNPYFWGQGTQVTVSSGSGSGSQVQLVESGGGSVQAGGSLTLSCVASGVTLGRHAIGWFRQAPGKERERVSCIRTFDGITSYVESTKGRFTISSNNAMNTVYLQMNSLKPEDTAVYFCALGVTAACSDNPYFWGQGTQVTVSSGSGSGSQVQLVESGGGSVQAGGSLTLSCVASGVTLGRHAIGWFRQAPGKERERVSCIRTFDGITSYVESTKGRFTISSNNAMNTVYLQMNSLKPEDTAVYFCALGVTAACSDNPYFWGQGTQVTVSS | 29 | 41 |  |  |
| H3 trimer (VHH) QVQLVESGGGLVKTGGSLRLSCAASGRTFSTYSMGWFRQAPGKEREFVAGMRWTGSSTFYSDSVKGRFTVSRNNAKDTVYLHMNSLKPEDTAVYYCAITTIVRAYYTEYTEADFGSWGQGTQVTVSSGAVLAPQVQLVESGGGLVKTGGSLRLSCAASGRTFSTYSMGWFRQAPGKEREFVAGMRWTGSSTFYSDSVKGRFTVSRNNAKDTVYLHMNSLKPEDTAVYYCAITTIVRAYYTEYTEADFGSWGQGTQVTVSSGSGSGSQVQLVESGGGLVKTGGSLRLSCAASGRTFSTYSMGWFRQAPGKEREFVAGMRWTGSSTFYSDSVKGRFTVSRNNAKDTVYLHMNSLKPEDTAVYYCAITTIVRAYYTEYTEADFGSWGQGTQVTVSS | 6 | 98 | 0.00012 | 1.8e+07 |
